Laboratory results from patent US20190315854A1 (BEIJING VDJBIO, published 2019).
Numbering of substitutions follows the chain as printed.

B1: 14# (antibody, human IgG1, kappa, V domains shown)
VH: QVQLQESGPGLVRPSQTLSLTCTVSGYSITSDHAWSWVRQPPGRGLEWIGFISYSGITTYNPSLKSRVTMLRDTSKNQFSLRLSSVTAADTAVYYCARSLARITAMDYWGQGSLVTVSS
VL: DIQMTQSPSSLSASVGDRVTITCRASQDISSYLNWYQQKPGKAPKLLIYYTSRLHSGVPSRFSGSGSGTDFTFTISSLQPEDIATYYCQQGNTLPYTFGQGTKVEIKR
notes: also called Sample # 14
B2: 15# (antibody, human IgG1, kappa, V domains shown)
VH: B1 VH with S99C
VL: B1 VL
notes: also called Sample # 15
B3: 16# (antibody, human IgG1, kappa, V domains shown)
VH: B1 VH
VL: B1 VL
notes: also called Sample # 16
B4: 17# (antibody, human IgG1, kappa, V domains shown)
VH: B1 VH with S99C, I103T
VL: B1 VL
notes: also called Sample # 17
B5: 18# (antibody, human IgG1, kappa, V domains shown)
VH: B1 VH with S99C
VL: B1 VL
notes: also called Sample # 18
B6: 24# (antibody, human IgG1, kappa, V domains shown)
VH: B1 VH with F51Y, S99C
VL: B1 VL
notes: also called Sample # 24
B7: 27# (antibody, human IgG1, kappa, V domains shown)
VH: B1 VH with I57M, I103A
VL: B1 VL
notes: also called Sample # 27
B8: 28# (antibody, human IgG1, kappa, V domains shown)
VH: B1 VH with I57M, I103T
VL: B1 VL
notes: also called Sample # 28
B9: 30# (antibody, human IgG1, kappa, V domains shown)
VH: B1 VH with I57M, S99C, I103T
VL: B1 VL
notes: also called Sample # 30
B10: 31# (antibody, human IgG1, kappa, V domains shown)
VH: B1 VH with I57M
VL: B1 VL
notes: also called Sample # 31
B11: 49# (antibody, human IgG1, kappa, V domains shown)
VH: B1 VH with F51Y, P62A, I103T
VL: B1 VL
notes: also called Sample # 49
B12: 51# (antibody, human IgG1, kappa, V domains shown)
VH: B1 VH with F51Y, S99C, I103M
VL: B1 VL
notes: also called Sample # 51
B13: 56# (antibody, human IgG1, kappa, V domains shown)
VH: B1 VH with I57M, T58I
VL: B1 VL
notes: also called Sample # 56
B14: 60# (antibody, human IgG1, kappa, V domains shown)
VH: B1 VH with I57M
VL: B1 VL
notes: also called Sample # 60
B15: 62# (antibody, human IgG1, kappa, V domains shown)
VH: B1 VH with I57M, S99C, I103A
VL: B1 VL
notes: also called Sample # 62
B16: 64# (antibody, human IgG1, kappa, V domains shown)
VH: B1 VH with I57M, S99C, I103M
VL: B1 VL
notes: also called Sample # 64
B17: 66# (antibody, human IgG1, kappa, V domains shown)
VH: B1 VH with I57M, I103M
VL: B1 VL
notes: also called Sample # 66
B18: 68# (antibody, human IgG1, kappa, V domains shown)
VH: B1 VH with I57M, S99C, M106I, W109F
VL: B1 VL
notes: also called Sample # 68
B19: 201# (antibody, human IgG1, kappa, V domains shown)
VH: B1 VH with I57M, S99C, M106I, Y108F
VL: B1 VL
notes: also called Sample # 201
B20: 203# (antibody, human IgG1, kappa, V domains shown)
VH: B1 VH with F51Y, S99C, I103M
VL: B1 VL with Q89G, T93R
notes: also called Sample # 203
B21: 208# (antibody, human IgG1, kappa, V domains shown)
VH: B1 VH with I57M, I103A
VL: B1 VL
notes: also called Sample # 208
B22: 247# (antibody, human IgG1, kappa, V domains shown)
VH: B1 VH with F51Y, I57M, S99C, I103M
VL: B1 VL with Q89G, T93R
notes: also called Sample # 247
B23: 248# (antibody, human IgG1, kappa, V domains shown)
VH: B1 VH with F51Y, I57M, T58I, S99T, I103M, M106I, Y108F
VL: B1 VL with Q89G, T93R
notes: also called Sample # 248
B24: 249# (antibody, human IgG1, kappa, V domains shown)
VH: B1 VH with F51Y, I57M, S99C, I103A
VL: B1 VL with Q89G, T93R
B25: 250# (antibody, human IgG1, kappa, V domains shown)
VH: B1 VH with F51Y, I57M
VL: B1 VL
notes: also called Sample # 250

The binders below were run against T1, sIL-6R (soluble IL-6 receptor; SBH Sciences) (human, UniProt P08887 20-365) (assay: SPR (BIAcore 3000), antibody on chip, sIL-6R analyte, 25 C).
T1 construct: also called human IL-6R
T1 sequence: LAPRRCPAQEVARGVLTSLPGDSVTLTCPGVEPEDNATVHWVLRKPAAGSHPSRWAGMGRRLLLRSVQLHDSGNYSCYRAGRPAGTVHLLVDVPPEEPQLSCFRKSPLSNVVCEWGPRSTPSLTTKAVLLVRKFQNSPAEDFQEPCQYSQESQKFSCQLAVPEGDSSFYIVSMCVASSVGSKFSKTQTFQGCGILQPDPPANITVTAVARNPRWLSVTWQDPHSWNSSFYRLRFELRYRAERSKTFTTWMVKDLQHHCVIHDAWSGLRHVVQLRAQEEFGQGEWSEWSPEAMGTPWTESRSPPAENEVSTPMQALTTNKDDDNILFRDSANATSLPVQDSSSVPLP
Experimental: (§1) All SPR measurements were performed on a BIAcore 3000 instrument (GE Biosciences, Piscataway, N.J.). BIAcore Software-BIAcore 3000 Control Software V3.2 was used for the operation and control of the BIAcore 3000 instrument. BiaEvaluation Software V4.1 was used for the analysis of SPR data from the BIAcore 3000 instrument and data was plotted using Graph Pad Prism Software Version 5. […] The indicated antibodies were used as the ligand for the construction of the reference channel of the chip. […] Each sample was injected for 3 min at a flow rate of 30 μL/min to allow for binding to chip-bound antibody. Next, binding buffer without analyte was sent over the chip at the same flow rate to allow for dissociation of bound analyte. After 500s, remaining bound analyte was removed by injecting regeneration solution (1M Formic acid). Data was analyzed by using the Kinetics Wizard and the manual fitting programs that are both included with the BiaEvaluation Software V4.1.
With B1 the Kd was 261 pM, the “Relative Affinity” value was 6.6 fold vs 25 (Tocilizumab) and the koff was 9.75e-05 s⁻¹. The kon was 374000 M⁻¹ s⁻¹.
B2 was tested, and the Kd was 200 pM, the “Relative Affinity” value was 8.6 fold vs 25 (Tocilizumab) and the koff was 5.97e-05 s⁻¹. For the same binder, the kon was 298000 M⁻¹ s⁻¹.
With B3 the Kd was 187 pM, the “Relative Affinity” value was 9.1 fold vs 25 (Tocilizumab) and the koff was 6.3e-05 s⁻¹. The kon was 336000 M⁻¹ s⁻¹.
For B4, the Kd was 354 pM, the “Relative Affinity” value was 4.8 fold vs 25 (Tocilizumab) and the koff was 0.000117 s⁻¹. The kon was 331000 M⁻¹ s⁻¹.
For B5, the Kd was 167 pM, the “Relative Affinity” value was 10.2 fold vs 25 (Tocilizumab) and the koff was 5.42e-05 s⁻¹. The kon was 325000 M⁻¹ s⁻¹.
With B6 the Kd was 317 pM, the “Relative Affinity” value was 5.4 fold vs 25 (Tocilizumab) and the koff was 7.99e-05 s⁻¹. It also gave a kon of 252000 M⁻¹ s⁻¹.
B7 was tested, and the Kd was 126 pM, the “Relative Affinity” value was 13.6 fold vs 25 (Tocilizumab) and the koff was 4.27e-05 s⁻¹. It also gave a kon of 339000 M⁻¹ s⁻¹.
For B8, the Kd was 408 pM, the “Relative Affinity” value was 4.2 fold vs 25 (Tocilizumab) and the koff was 0.000148 s⁻¹. It also gave a kon of 363000 M⁻¹ s⁻¹.
With B9 the Kd was 255 pM, the “Relative Affinity” value was 6.7 fold vs 25 (Tocilizumab) and the koff was 8.33e-05 s⁻¹. For the same binder, the kon was 327000 M⁻¹ s⁻¹.
With B10 the Kd was 156 pM, the “Relative Affinity” value was 11 fold vs 25 (Tocilizumab) and the koff was 5.99e-05 s⁻¹. The kon was 385000 M⁻¹ s⁻¹.

Biological target: T1, sIL-6R (soluble IL-6 receptor; SBH …)
Test: as above
Remark: another data set of the same source
Experimental: as §1
For B11, the Kd was 1650 pM, the “Relative Affinity” value was 1.7 fold vs 25 (Tocilizumab) and the koff was 0.000218 s⁻¹. For the same binder, the kon was 132000 M⁻¹ s⁻¹.
With B12 the Kd was 420 pM, the “Relative Affinity” value was 6.8 fold vs 25 (Tocilizumab) and the koff was 5.72e-05 s⁻¹. The kon was 136000 M⁻¹ s⁻¹.
B13 was tested, and the Kd was 243 pM, the “Relative Affinity” value was 11.7 fold vs 25 (Tocilizumab) and the koff was 5.59e-05 s⁻¹. For the same binder, the kon was 230000 M⁻¹ s⁻¹.
B14 was tested, and the Kd was 205 pM, the “Relative Affinity” value was 13.9 fold vs 25 (Tocilizumab) and the koff was 4.59e-05 s⁻¹. For the same binder, the kon was 224000 M⁻¹ s⁻¹.
In the case of B15, the Kd is reported as 25.8 pM, the “Relative Affinity” value is reported as 110 fold vs 25 (Tocilizumab) and the koff is reported as 6.61e-06 s⁻¹. It also gave a kon of 256000 M⁻¹ s⁻¹.
B16 was tested, and the Kd was 133 pM, the “Relative Affinity” value was 21.4 fold vs 25 (Tocilizumab) and the koff was 2.85e-05 s⁻¹. For the same binder, the kon was 214000 M⁻¹ s⁻¹.
With B17 the Kd was 141 pM, the “Relative Affinity” value was 20.2 fold vs 25 (Tocilizumab) and the koff was 3.38e-05 s⁻¹. For the same binder, the kon was 239000 M⁻¹ s⁻¹.
In the case of B18, the Kd is reported as 29.6 pM, the “Relative Affinity” value is reported as 96.3 fold vs 25 (Tocilizumab) and the koff is reported as 8.6e-06 s⁻¹. The kon was 291000 M⁻¹ s⁻¹.
With B19 the Kd was 67.4 pM, the “Relative Affinity” value was 42.3 fold vs 25 (Tocilizumab) and the koff was 1.47e-05 s⁻¹. The kon was 218000 M⁻¹ s⁻¹.
With B20 the Kd was 334 pM, the “Relative Affinity” value was 8.5 fold vs 25 (Tocilizumab) and the koff was 3.17e-05 s⁻¹. For the same binder, the kon was 95000 M⁻¹ s⁻¹.
In the case of B21, the Kd is reported as 126 pM, the “Relative Affinity” value is reported as 22.6 fold vs 25 (Tocilizumab) and the koff is reported as 2.79e-05 s⁻¹. The kon was 221000 M⁻¹ s⁻¹.

Biological target: T1, sIL-6R (soluble IL-6 receptor; SBH …)
Test: as above
Remark: another data set of the same source
Experimental: as §1
B22 was tested, and the Kd was 212 pM, the “Relative Affinity” value was 13.2 fold vs 25 (Tocilizumab) and the koff was 3.54e-05 s⁻¹. The kon was 167000 M⁻¹ s⁻¹.
With B23 the Kd was 189 pM, the “Relative Affinity” value was 14.8 fold vs 25 (Tocilizumab) and the koff was 1.73e-05 s⁻¹. The kon was 91200 M⁻¹ s⁻¹.
In the case of B24, the Kd is reported as 241 pM, the “Relative Affinity” value is reported as 11.6 fold vs 25 (Tocilizumab) and the koff is reported as 3.39e-05 s⁻¹. It also gave a kon of 141000 M⁻¹ s⁻¹.
B25 was tested, and the Kd was 354 pM, the “Relative Affinity” value was 7.9 fold vs 25 (Tocilizumab) and the koff was 9.27e-05 s⁻¹. It also gave a kon of 262000 M⁻¹ s⁻¹.

Biological target: T1, sIL-6R (soluble IL-6 receptor; SBH …)
Test: as above
Remark: another data set of the same source
Experimental: as §1
In the case of B1, the Kd is reported as 181 pM, the “Relative Affinity” value is reported as 7.4 fold vs 25 (Tocilizumab) and the koff is reported as 5.69e-05 s⁻¹. For the same binder, the kon was 314000 M⁻¹ s⁻¹.
B2 was tested, and the Kd was 145 pM, the “Relative Affinity” value was 9.2 fold vs 25 (Tocilizumab) and the koff was 4.49e-05 s⁻¹. It also gave a kon of 310000 M⁻¹ s⁻¹.
In the case of B3, the Kd is reported as 136 pM, the “Relative Affinity” value is reported as 9.8 fold vs 25 (Tocilizumab) and the koff is reported as 4.04e-05 s⁻¹. It also gave a kon of 296000 M⁻¹ s⁻¹.
In the case of B4, the Kd is reported as 304 pM, the “Relative Affinity” value is reported as 4.4 fold vs 25 (Tocilizumab) and the koff is reported as 8.71e-05 s⁻¹. It also gave a kon of 287000 M⁻¹ s⁻¹.
In the case of B5, the Kd is reported as 141 pM, the “Relative Affinity” value is reported as 9.5 fold vs 25 (Tocilizumab) and the koff is reported as 4.73e-05 s⁻¹. It also gave a kon of 335000 M⁻¹ s⁻¹.
In the case of B6, the Kd is reported as 281 pM, the “Relative Affinity” value is reported as 4.8 fold vs 25 (Tocilizumab) and the koff is reported as 7.13e-05 s⁻¹. It also gave a kon of 254000 M⁻¹ s⁻¹.
With B7 the Kd was 102 pM, the “Relative Affinity” value was 13.1 fold vs 25 (Tocilizumab) and the koff was 3.46e-05 s⁻¹. It also gave a kon of 339000 M⁻¹ s⁻¹.
With B8 the Kd was 268 pM, the “Relative Affinity” value was 5 fold vs 25 (Tocilizumab) and the koff was 7.61e-05 s⁻¹. The kon was 284000 M⁻¹ s⁻¹.
With B9 the Kd was 235 pM, the “Relative Affinity” value was 5.7 fold vs 25 (Tocilizumab) and the koff was 7.03e-05 s⁻¹. The kon was 299000 M⁻¹ s⁻¹.
With B10 the Kd was 100 pM, the “Relative Affinity” value was 13.4 fold vs 25 (Tocilizumab) and the koff was 2.92e-05 s⁻¹. It also gave a kon of 292000 M⁻¹ s⁻¹.
